This experiment deals with iRFP (Rhodopseudomonas palustris). Kind of experiment: SEC.

One substance from publication PMC5122317 can be followed below.

One may read the stoichiometry N as a count of units in the complex or per binding partner.

Substance iRFP registered a stoichiometry N of 1.92 fold.
